Results reported in FireProtDB (doi:10.1111/j.1432-1033.1991.tb16033.x).

Settings: Escherichia coli (strain K12); pH 5.5; 25 °C; GdnHCl; Fluorescence; Sodium acetate 20 mM; NaCl 0.1 M; reversible: yes; whole UniProt chain shown

B1: Ribonuclease HI wild type, P0A7Y4 (protein)
chain: MLKQVEIFTDGSCLGNPGPGGYGAILRYRGREKTFSAGYTRTTNNRMELMAAIVALEALKEHCEVILSTDSQYVRQGITQWIHNWKKRGWKTADKKPVKNVDLWQRLDAALGQHQIKWEWVKGHAGHPENERCDELARAAAMNPTLEDTGYQVEV
denaturant m value: 5.17 kcal/mol/M
denaturant midpoint (higher = more stable): 1.79 M
unfolding free energy: 9.26 kcal/mol
